Source: patent publication US20220110851A1

Assays:
[1] = target: acetylcholine receptor protein; experiment: SPR, AchR on CM5 chip, positive control
[2] = target: acetylcholine receptor on AchR-overexpressed TE671 cells; experiment: cell-based or functional assay

| Substance | Kd [1] | IC50 value for AchR (AchR inhibitory effect in TE671 cells) [2] |
| --- | --- | --- |
| Synake (peptide) | 2300 µM | 75 µM |
| bungarotoxin |  | 0.0075 µM |
